We go through one molecule from patent publication US20250312464A1 (CILOA, published 2025).

The target of the assay is T1, Src-streptavidin-PP polypeptide.
T1 construct: also called Src-strepta-PP; Src-Strepta-PP
As to the kind of experiment: co-expression in HEK293T cells; EV loading, Western blot.

B1: SBP-eGFP polypeptide (other)
chain: not shown
B1: the binding result is given as “binds”.
